Our source for the stoichiometry N values is PMC8699147.

For orientation: stoichiometry N means the number of molecules, sites or subunits per partner or assembly.

For this assay, the target named is T1, alpha-fetoprotein, P02771.
T1 chain: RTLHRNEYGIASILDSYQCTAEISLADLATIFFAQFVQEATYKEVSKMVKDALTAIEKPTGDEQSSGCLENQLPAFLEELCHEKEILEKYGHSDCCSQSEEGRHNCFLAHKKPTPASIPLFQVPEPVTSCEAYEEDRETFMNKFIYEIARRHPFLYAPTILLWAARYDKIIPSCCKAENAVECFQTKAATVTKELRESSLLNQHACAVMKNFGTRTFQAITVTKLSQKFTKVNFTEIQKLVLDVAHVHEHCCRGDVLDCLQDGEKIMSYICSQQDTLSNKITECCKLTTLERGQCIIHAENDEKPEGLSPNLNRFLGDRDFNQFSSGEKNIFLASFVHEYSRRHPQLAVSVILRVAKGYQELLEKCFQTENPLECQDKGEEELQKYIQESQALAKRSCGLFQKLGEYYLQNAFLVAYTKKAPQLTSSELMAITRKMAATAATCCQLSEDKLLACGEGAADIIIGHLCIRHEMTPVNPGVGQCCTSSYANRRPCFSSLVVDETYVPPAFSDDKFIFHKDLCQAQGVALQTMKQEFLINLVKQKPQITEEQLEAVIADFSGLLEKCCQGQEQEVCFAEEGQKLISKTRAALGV
The experiment in a line: native gel or EMSA; native 10% PAGE without SDS of calibrator S1 of VIDAS AFP, 150 V, running buffer 0.025 M TRIS-Base pH 8.3, 0.192 M glycine, Coomassie Blue staining. To be noted: remark: other sources report otherwise. On the technique in general: Mobility shift assays separate free from complexed probe on a gel.

Values joined by “and” are separate entries in the source; they are usually repeats but may differ in a detail not shown here. Equal values may be shown once.

B1: alpha-fetoprotein, P02771 19-609 (natural protein)
chain: T1 chain
Turning to B1, the stoichiometry N is 2 and 3 and 4.
